Results reported in PMC11245102 (bioRxiv, 2024).
Several values for one entry are separate records, joined by “and”; a condition that tells them apart may be missing. Identical values can stand only once.

Tests used:
[1] = molecular target: CS from a Myxococcota species (type III CS) (a Myxococcota species); assay: mass photometry
[2] = molecular target: citrate synthase from M. sulfidovorans W150A (M. sulfidovorans); assay: mass photometry
[3] = molecular target: non-mitochondrial CS (nmCS) from Ananas comosus (Ananas comosus); assay: cryo-EM structure
[4] = molecular target: non-mitochondrial CS (nmCS) from Ananas comosus (Ananas comosus); assay: mass photometry
[5] = molecular target: non-mitochondrial CS (nmCS) from Ananas comosus (Ananas comosus); assay: mass photometry; remark: listed apart in the source
[6] = molecular target: non-mitochondrial CS (nmCS) from C. fasciculata (C. fasciculata); assay: mass photometry
[7] = molecular target: non-mitochondrial CS (nmCS) from Chlamydomonas reinhardtii (Chlamydomonas reinhardtii); assay: mass photometry
[8] = molecular target: type II CS from C. woesi (C. woesi); assay: mass photometry
[9] = molecular target: type II CS from F. taffensis (F. taffensis); assay: mass photometry
[10] = molecular target: type III CS from Cyanobium sp. PCC 7001 (Cyanobium sp. PCC 7001); assay: mass photometry
mass photometry = molecular target: the molecule itself; assay: mass photometry

“CS from a Myxococcota species (type III CS) (enzyme)” was tested, and the stoichiometry N [1] was 2.

Work on “citrate synthase from M. sulfidovorans W150A (enzyme)” yielded a stoichiometry N [2] of 2.

For “non-mitochondrial CS (nmCS) from Ananas comosus (enzyme)”, the stoichiometry N [3] was 8, the stoichiometry N [4] was 8 and the stoichiometry N [5] was 6 and 8.

For “non-mitochondrial CS (nmCS) from C. fasciculata (enzyme)”, the stoichiometry N [6] was 6.

Work on “non-mitochondrial CS (nmCS) from Chlamydomonas reinhardtii (enzyme)” yielded a stoichiometry N [7] of 2.

type II CS from C. woesi (enzyme) was tested, and the stoichiometry N [8] was 2.

With type II CS from F. taffensis (enzyme) the stoichiometry N [9] was 2.

“type III CS from Cyanobium sp. PCC 7001 (enzyme)” showed a stoichiometry N [10] of 2.

B1: non-mitochondrial CS (nmCS) from P. olsenii (enzyme)
chain: MDRLNTVAAHVAPTLTITDNRSGKKIDVKVKDGTIRATDLKQLGIQTYDPGYMNTTCCVSRISFIDGNRGVLRYRGYPIEQLAQDSSFTEVAFLLQYGELPTRGQLTQWEQDLMRHSMLHQDVATLTSAFRYDAHPMGMFVSAMAALGTLHPETNPALTSQNIYKDKAVRNKEIARILGSATTLAAMAYRHRMGRPFNTPNSDLGYTENFLYMLDVSHEGTSYRPHPKLVKALDVLFVLHAEHELNCSTSAMRHLTSSNVDVYTACAAAAGALYGPRHGGANEAVLRMLERIGSIENVPTFVDKVKQRKELLMGFGHRVYKHYDPRATIVRKIAEDVFEICGREPLIEVAMDLERIALSDPYFKDRKLYPNVDFYSGLIYKAMGFPTDMFPILFTVPRLAGWLAHWSEWIDDPENRIYRPFQVYKGYDKRDYVQVDERSEKVHSKELTVKRSAFNRRRDASLQSAAADRSEYEWIKD
B1 was tested, and the “stoichiometry N” value (mass photometry) was 6.

B2: CS from A. comosus Δ487–513 (domain or fragment)
chain: MEGAFDHSALARARLAVLSGHLAAVSAAGGGASPLERSPVSVQEIPPPPRNLGGSLAVIDGRSGKKFEFKISDEGTVRATDFKKITTGKNDKGLKLYDPGYLNTAPVRSSICYIDGDEGILRYRGYPIEELAESSSYPEVAYLLMYGNLPSKSQLADWEFAISQHSAVPQGVLDIIQGMPHDAHPMGVLVCAMSALSVFHPDANPALRGQDLYKSKQLRDKQIVRILGKVPTIAAAAYLRLAGRPPVLPSNNFSYSENFLYMLDSLGNRSYKPNTRLARVLDILFILHAEHEMNCSTAAARHLASSGVDVFTALAGAVGALYGPLHGGANEAVLKMLNEIGTVENIPDFIEGVKNRKRKMSGFGHRVYKNYDPRAKVIRKLAEEVFSIVGRDPLIEVAIALEKAALSDEYFIKRKLYPNVDFYSGLIYRAMGFPTEFFPVLFAIPRMAGYLAHWRESLDDPDTKIMRPQQVYTGVWLRHYTPLQER
For B2, the “stoichiometry N” value (mass photometry) was 2.
